Source: patent publication US20090291088A1 (Biogen, published 2009)

Columns and labels:
[1] = biological target: T1, hIGF-1R-Fc mutant SD103 (D461A, V462T) (human, UniProt P08069 31-933); experiment: SPR, Fab over captured mutant
T1 construct: not shown: C-terminal human IgG1-Fc tag

[2] = biological target: T2, hIGF-1R-Fc mutant SD108 (H480E) (human, UniProt P08069 31-933); experiment: SPR, Fab over captured mutant
T2 construct: not shown: C-terminal human IgG1-Fc tag

[3] = biological target: T3, hIGF-1R-Fc mutant SD102 (E459A, S460A) (human, UniProt P08069 31-933); experiment: SPR, Fab over captured mutant
T3 construct: not shown: C-terminal human IgG1-Fc tag

[4] = biological target: T4, hIGF-1R-Fc mutant SD113 (E570A, I571T) (human, UniProt P08069 31-933); experiment: SPR, Fab over captured mutant
T4 construct: not shown: C-terminal human IgG1-Fc tag

[5] = biological target: T5, hIGF-1R-Fc mutant SD104 (H464A) (human, UniProt P08069 31-933); experiment: SPR, Fab over captured mutant
T5 construct: not shown: C-terminal human IgG1-Fc tag

[6] = biological target: T6, hIGF-1R-Fc mutant SD109 (Y482A, R483W) (human, UniProt P08069 31-933); experiment: SPR, Fab over captured mutant
T6 construct: not shown: C-terminal human IgG1-Fc tag

human INSR(28-956)-His10 = biological target: T7, human INSR(28-956)-His10 (human, UniProt P06213 28-956); experiment: ELISA on coated rh-INSR
T7 construct: range 28-956; Bought (R&D Systems 1544-IR); also called rh-INSR; soluble insulin receptor
Description: ELISA assays were performed to determine specific binding of the Fab fragment antibodies to soluble IGF-1R over the insulin receptor. […] Color development was stopped by addition of 4NH₂SO₄ and optical density is measured at 450 nm using a Molecular Devices plate reader and binding curves are generated.

[7] = biological target: T8, hIGF-1R-Fc mutant SD015 (H464E) (human, UniProt P08069 31-933); experiment: SPR (Biacore): M13-C06 injected over SD015 captured on an immobilised M13-C06 surface
T8 construct: not shown: C-terminal human IgG1-Fc tag
Description: After, completion of the receptor-Fc loading step, flow rates were elevated to 5 μl/min. […] At the end of each sensorgram, the flow rate was elevated to 30 μl/min and the chip surface was regenerated by 2×10 μL injections of 0.1 M glycine, pH 2.

[8] = biological target: T9, human IGF-1R(1-902)-His10 (human, UniProt P08069 31-932); experiment: SPR, Fab over IGF-1R-10His captured by anti-His
T9 construct: Cy5-labelled in tr-FRET; also called hIGF-1R-His10; IGF-1R-His
Description: (§1) All surface plasmon resonance (SPR) experiments were performed on a Biacore 3000 set to 25° C. using HBS-EP (Biacore, Cat. No. BR-1001-88) as the running buffer. A biotin-labeled anti-HisTag antibody (biotin-PENTA-His, Qiagen Cat. No. 34440) was immobilized to saturation on a Biacore SA chip (Cat. No. BR-1000-32) surface by injection at 500 nM in HBS-EP buffer. […] Subsequent to IGF-1R injections, flow rates were increased to 20 μL/min. A second, 130 μL injection of anti-IGF-1R antibody or Fab was performed to investigate interactions with the receptor. Each antibody and Fab was serially diluted from 64 nM to 0.5 nM to obtain concentration dependent kinetic binding curves. Each injection series was regenerated using 3×10 μL injections of 10 mM Acetate, pH 4.0, at 20 μL/min. Each curve was double referenced using (1) data obtained from a streptavidin surface devoid of IGF-1R and (2) data from a primary injection of IGF-1R followed by a secondary injection of HBS-EP buffer. The concentration series for each antibody and Fab was fit to the 1:1 binding model provided within the BiaEvaluation software of the manufacturer.
(§2) To obtain discrete affinities, Fab fragments of each antibody were generated using papain digestion as described above.

human IGF-1R(1-903)-Fc [9] = biological target: T10, human IGF-1R(1-903)-Fc (human, UniProt P08069 31-933); experiment: SPR, Fab over captured hIGF-1R-Fc
T10 construct: Made by Biogen Idec; Multimerises through IGF-1R and Fc; also called hIGF-1R-Fc; IGF-1R-Fc; not shown: C-terminal human IgG1-Fc tag
Description: (§3) Experiments were performed on a Biacore 3000 set to 25° C. using HBS-EP (Biacore, Cat. No. BR-1001-88) as the running buffer. An anti-human IgG-Fc antibody (2C11 from Biogenesis, Cat. No. 5218-9850) was immobilized to saturation on a Biacore CM5 chip (Cat. No. BR-1000-14) surface by injection at 500 nM in HBS-EP buffer. mIGF-1R-Fc or hIGF-1R-Fc was captured on the chip surface by injecting 40 μL of 20 nM receptor at 3 μL/min. […] Dissociation of Fab was measured for ˜27 minutes. Fab was serially diluted from 25 to 0.4 nM to obtain concentration dependent kinetic binding curves. Regeneration of the surface chip between each injection series was performed using 3×10 μL injections of 100 mM glycine pH 2.0 at 60 μL/min. Each curve was double referenced using (1) data obtained from a CM5 chip surface devoid of the anti-IgG antibody 2C11 and (2) data from a primary injection of receptor followed by a secondary injection of HBS-EP buffer.

human IGF-1R(1-903)-Fc [10] = biological target: T10, human IGF-1R(1-903)-Fc; experiment: SPR, Fab over hIGF-1R-Fc captured by anti-Fc, 1:1 model, apparent affinity
Description: as §3

[11] = biological target: T11, IGF-1R (soluble, construct not stated) (human, UniProt P08069 31-932, limits assumed); experiment: Fab affinity for IGF-1R, method not given; Fab, not IgG; method and IGF-1R construct not stated
T11 construct: whole entry named; also called Solube IGF-1R Protein; soluble recombinant human IGF-1R

[12] = biological target: T9, human IGF-1R(1-902)-His10; experiment: SPR, Fab over captured IGF-1R-10His
Description: as §1, §2

B1: M13-C06 Fab (Fab, V domains shown)
VH: EVQLLESGGGLVQPGGSLRLSCAASGFTFSIYRMQWVRQAPGKGLEWVSGISPSGGTTWYADSVKGRFTISRDNSKNTLYLQMNSLRAEDTAVYYCARWSGGSGYAFDIWGQGTMVTVSS
VL: DIQMTQSPLSLSASVGDRVTITCQASRDIRNYLNWYQQKPGKAPKLLIYDASSLQTGVPSRFGGSGSGTDFSFTIGSLQPEDIATYYCQQFDSLPHTFGQGTKLEIK
notes: Human Fab from a phage library, kappa light chain
[1]
  binding result: no binding (tested: 10 nM)
[2]
  binding result: no binding (tested: 10 nM)
[3]
  binding result: no binding (tested: 10 nM)
[4]
  binding result: no binding (tested: 10 nM)
[5]
  binding result: no binding (tested: 10 nM)
[6]
  binding result: no binding (tested: 10 nM)
Human INSR(28-956)-His10
  binding result: no binding (tested: 2 µM-0.2 nM)
[7]
  binding result: no binding (tested: 10 nM)
[8]
  Kd: 1.3 nM
Human IGF-1R(1-903)-Fc [9]
  koff: 0.000833 s⁻¹
  kon: 852000 M⁻¹ s⁻¹
Human IGF-1R(1-903)-Fc [10]
  Kd: 0.978 nM
[11]
  Kd: 1.3 nM
[12]
  koff: 0.0012 s⁻¹
  kon: 880000 M⁻¹ s⁻¹
